The supplement of paper PMC10724198
± gives the standard deviation of the averaged measurements.

How the values were obtained:
Saccharomyces cerevisiae [1] = assay: protein stability index of tFT-peptide fusion (C-terminal peptide) (PSI (0-1 scale)); higher = more stable (slower turnover)
Experimental: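 MPS profiling in S. cerevisiae of the tFT-X12 degron library: putative degron peptides plus stable controls, 12 aa, fused to the C-terminus of a sfGFP-mCherry timer. Cells are FACS-sorted into 8 mCherry/sfGFP bins and deep-sequenced. PSI runs from 0 (unstable) to 1 (stable). Backgrounds are wild type, das1Δ and doa10Δ at 30 °C, and wild type, das1Δ, cdc34-1 and cdc53-1 at 37 °C; 2-3 technical replicates each.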

Saccharomyces cerevisiae [2] = assay: as above; details: genetic background: wild type; temperature: 30 C
[3] = genetic background: cdc34-1, temperature: 37 C
[4] = genetic background: cdc53-1, temperature: 37 C
[5] = genetic background: das1 deletion, temperature: 30 C
[6] = genetic background: das1 deletion, temperature: 37 C
[7] = genetic background: doa10 deletion, temperature: 30 C
[8] = genetic background: wild type, temperature: 30 C
[9] = genetic background: wild type, temperature: 37 C
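Note: PSI is a weighted mean of sequencing reads over stability bins, variants kept only with over 10 reads, mCherry proximal and sfGFP distal, peptide attached via GGGS linker.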

Sequence	protein stability index (Saccharomyces cerevisiae [1]; [3])	protein stability index (Saccharomyces cerevisiae [1]; [4])	protein stability index (Saccharomyces cerevisiae [1]; [5])	protein stability index (Saccharomyces cerevisiae [1]; [6])	protein stability index (Saccharomyces cerevisiae [1]; [7])	protein stability index (Saccharomyces cerevisiae [1]; [8])	protein stability index (Saccharomyces cerevisiae [1]; [9])	protein stability index (Saccharomyces cerevisiae [2])
ACGGGSNVHRAG	0.665 ± 0.028	0.7248 ± 0.0067	0.657 ± 0.019	0.767 ± 0.021	0.662 ± 0.045	0.66 ± 0.018	0.75211 ± 0.00044	0.747 ± 0.012
ACVRLVLCVCRV	0.281 ± 0.011	0.341 ± 0.042	0.237 ± 0.04	0.4091 ± 0.0036	0.211 ± 0.015	0.225 ± 0.028	0.375 ± 0.02	0.339 ± 0.0039
ACVWVVALVWVF	0.121 ± 0.005	0.249 ± 0.041	0.174 ± 0.035	0.303 ± 0.015	0.132 ± 0.0086	0.153 ± 0.01	0.243 ± 0.009	0.213 ± 0.016
AEVLCEIVIALR	0.582 ± 0.011	0.675 ± 0.063	0.485 ± 0.04	0.583 ± 0.0085	0.45 ± 0.019	0.48 ± 0.038	0.543 ± 0.018	0.523 ± 0.043
AFFFCVVVLFSF	0.194 ± 0.0078	0.233 ± 0.013	0.171 ± 0.027	0.289 ± 0.015	0.178 ± 0.018	0.176 ± 0.041	0.256 ± 0.054	0.182 ± 0.044
AFFRCKCYVGTP	0.568 ± 0.011	0.584 ± 0.046	0.502 ± 0.017	0.598 ± 0.013	0.512 ± 0.013	0.495 ± 0.0099	0.561 ± 0.025	0.511 ± 0.057
AFTFLLCWLFGV	0.622 ± 0.024	0.671 ± 0.01	0.552 ± 0.018	0.627 ± 0.0065	0.453 ± 0.0068	0.454 ± 0.016	0.585 ± 0.041	0.467 ± 0.054
AFVALCACVIFV	0.175 ± 0.015	0.249 ± 0.026	0.215 ± 0.039	0.362 ± 0.005	0.178 ± 0.016	0.202 ± 0.026	0.302 ± 0.0078	0.302 ± 0.025
AGGVNWWSSWRV	0.739 ± 0.049	0.767 ± 0.0082	0.648 ± 0.015	0.775 ± 0.011	0.6591 ± 0.0032	0.669 ± 0.014	0.78 ± 0.037	0.7454 ± 0.006
AGMLMCLYLFFV	0.562 ± 0.05	0.661 ± 0.047	0.467 ± 0.032	0.598 ± 0.022	0.428 ± 0.0066	0.449 ± 0.028	0.5673 ± 0.0029	0.468 ± 0.027
AIMFLVLGYVFF	0.262 ± 0.085	0.395 ± 0.018	0.269 ± 0.03	0.462 ± 0.019	0.255 ± 0.036	0.276 ± 0.027	0.452 ± 0.019	0.378 ± 0.034
ALCPPLPMLVVA	0.02987 ± 0.00016	0.03 ± 0.0043	0.156 ± 0.019	0.0912 ± 0.0067	0.109 ± 0.01	0.137 ± 0.03	0.0758 ± 0.0021	0.2097 ± 0.00085
ALLMVCFGFSLV	0.445 ± 0.022	0.5162 ± 0.0013	0.372 ± 0.032	0.527 ± 0.0098	0.335 ± 0.009	0.367 ± 0.02	0.508 ± 0.0078	0.422 ± 0.01
ALNFFSLFMLFR	0.221 ± 0.058	0.168 ± 0.07	0.325 ± 0.041	0.422 ± 0.022	0.603 ± 0.0092	0.325 ± 0.034	0.358 ± 0.022	0.398 ± 0.048
ALSRFFSVFLLV	0.592 ± 0.013	0.671 ± 0.009	0.55 ± 0.019	0.6766 ± 0.0044	0.26 ± 0.012	0.266 ± 0.03	0.454 ± 0.032	0.3814 ± 0.00064
ASVCLNVIYQLV	0.515 ± 0.024	0.451 ± 0.0053	0.288 ± 0.027	0.471 ± 0.013	0.1572 ± 0.0011	0.164 ± 0.018	0.222 ± 0.024	0.268 ± 0.036
AVLFAPPLSSNF	0.712 ± 0.03	0.78169 ± 0.00024	0.64 ± 0.014	0.7729 ± 0.0067	0.657 ± 0.026	0.6489 ± 0.0039	0.739 ± 0.0078	0.729 ± 0.052
AVSFVTLSIMVM	0.0451 ± 0.007	0.0958 ± 0.092	0.153 ± 0.016	0.163 ± 0.0065	0.135 ± 0.005	0.157 ± 0.018	0.1217 ± 0.0011	0.195 ± 0.032
AWVEVYVISIGV	0.192 ± 0.024	0.257 ± 0.0074	0.161 ± 0.022	0.324 ± 0.012	0.132 ± 0.0032	0.153 ± 0.011	0.2966 ± 0.0016	0.19 ± 0.032
CAGLLSVSFWLF	0.516 ± 0.024	0.589 ± 0.037	0.44 ± 0.033	0.597 ± 0.022	0.351 ± 0.0039	0.381 ± 0.017	0.552 ± 0.0056	0.499 ± 0.0012

Sequence	protein stability index (Saccharomyces cerevisiae [1]; [3])	protein stability index (Saccharomyces cerevisiae [1]; [4])	protein stability index (Saccharomyces cerevisiae [1]; [5])	protein stability index (Saccharomyces cerevisiae [1]; [6])	protein stability index (Saccharomyces cerevisiae [1]; [7])	protein stability index (Saccharomyces cerevisiae [1]; [8])	protein stability index (Saccharomyces cerevisiae [1]; [9])	protein stability index (Saccharomyces cerevisiae [2])
CFATTCLRCKWV	0.692 ± 0.038	0.738 ± 0.035	0.645 ± 0.033	0.739 ± 0.028	0.425 ± 0.011	0.459 ± 0.022	0.631 ± 0.027	0.484 ± 0.014
CFCVSVHVWLLM	0.112 ± 0.028	0.238 ± 0.046	0.199 ± 0.038	0.342 ± 0.017	0.0493 ± 0.017	0.069 ± 0.018	0.105 ± 0.017	0.147 ± 0.04
CFFLLLRVSLFP	0.08149 ± 0.00038	0.112 ± 0.024	0.143 ± 0.032	0.257 ± 0.0087	0.142 ± 0.0027	0.145 ± 0.025	0.218 ± 0.011	0.239 ± 0.028
CFSLLFYTLSLL	0.47 ± 0.029	0.499 ± 0.0054	0.393 ± 0.022	0.5305 ± 0.0034	0.2695 ± 0.00095	0.274 ± 0.021	0.409 ± 0.0057	0.351 ± 0.018
CFVICVCLCFGR	0.229 ± 0.044	0.3626 ± 0.002	0.232 ± 0.018	0.416 ± 0.015	0.206 ± 0.0033	0.21 ± 0.026	0.371 ± 0.0092	0.35 ± 0.025
CGSLDLPHQCLL	0.7247 ± 0.0066	0.7844 ± 0.0062	0.677 ± 0.0093	0.7545 ± 0.0062	0.691 ± 0.048	0.693 ± 0.01	0.774 ± 0.0033	0.744 ± 0.059
CICAFCSLNLLC	0.695 ± 0.01	0.774 ± 0.016	0.61 ± 0.012	0.765 ± 0.011	0.289 ± 0.0064	0.324 ± 0.023	0.607 ± 0.013	0.435 ± 0.011
CIHMNCSMMIIS	0.0533 ± 0.045	0.084 ± 0.0027	0.168 ± 0.0061	0.0659 ± 0.029	0.169 ± 0.0045	0.132 ± 0.036	0.0482 ± 0.035	0.135 ± 0.0034
CKGPPVKFIVLM	0.614 ± 0.018	0.7111 ± 0.0044	0.597 ± 0.03	0.7359 ± 0.0039	0.135 ± 0.0034	0.147 ± 0.028	0.243 ± 0.023	0.225 ± 0.057
CKYCKCVVLLWS	0.53 ± 0.052	0.605 ± 0.013	0.385 ± 0.037	0.6012 ± 0.00065	0.2932 ± 0.0013	0.334 ± 0.034	0.536 ± 0.01	0.434 ± 0.037
CLFFLVYELSIL	0.256 ± 0.017	0.352 ± 0.048	0.257 ± 0.023	0.434 ± 0.016	0.2162 ± 0.00051	0.246 ± 0.0069	0.387 ± 0.0045	0.317 ± 0.021
CLQYRACLILLT	0.406 ± 0.014	0.3653 ± 0.0014	0.365 ± 0.015	0.494 ± 0.0041	0.456 ± 0.0093	0.343 ± 0.015	0.425 ± 0.0086	0.425 ± 0.0091
CLSGPFRSLAVF	0.545 ± 0.029	0.6286 ± 0.0025	0.485 ± 0.031	0.6326 ± 0.0051	0.341 ± 0.009	0.365 ± 0.023	0.5263 ± 0.0018	0.425 ± 0.038
CMILVACFYLPS	0.285 ± 0.033	0.441 ± 0.061	0.29 ± 0.024	0.455 ± 0.017	0.248 ± 0.0063	0.294 ± 0.017	0.428 ± 0.01	0.321 ± 0.004
CMYTILRHKINN	0.628 ± 0.047	0.621 ± 0.075	0.649 ± 0.024	0.763 ± 0.023	0.129 ± 0.036	0.147 ± 0.058	0.279 ± 0.029	0.296 ± 0.054
CPVSRHLLVLYW	0.413 ± 0.0094	0.4424 ± 0.0029	0.345 ± 0.029	0.4933 ± 0.0031	0.402 ± 0.017	0.331 ± 0.019	0.47 ± 0.012	0.432 ± 0.029
CQVSEWIRYRFL	0.681 ± 0.074	0.743 ± 0.01	0.637 ± 0.034	0.734 ± 0.018	0.247 ± 0.0032	0.252 ± 0.0098	0.386 ± 0.016	0.417 ± 0.02
CRAAMYSFFLNF	0.674 ± 0.063	0.75 ± 0.017	0.651 ± 0.037	0.7584 ± 0.0043	0.236 ± 0.0046	0.299 ± 0.0089	0.529 ± 0.022	0.427 ± 0.025
CRLFFVFVFFWW	0.22 ± 0.04	0.179 ± 0.024	0.253 ± 0.03	0.322 ± 0.0059	0.311 ± 0.01	0.249 ± 0.022	0.274 ± 0.023	0.253 ± 0.095
